Columns and labels:
[1] = target: T1, human sodium-dependent phosphate transporter 2B (NaPi2b) (human, UniProt O95436 1-690); assay: flow cytometry, IGROV-1 cells (endogenous NaPi2b); apparent Kd
T1 construct: UniProt ID is given as 095436 [sic]; also called hNaPi2b; Hu NaPi2b
T1 sequence: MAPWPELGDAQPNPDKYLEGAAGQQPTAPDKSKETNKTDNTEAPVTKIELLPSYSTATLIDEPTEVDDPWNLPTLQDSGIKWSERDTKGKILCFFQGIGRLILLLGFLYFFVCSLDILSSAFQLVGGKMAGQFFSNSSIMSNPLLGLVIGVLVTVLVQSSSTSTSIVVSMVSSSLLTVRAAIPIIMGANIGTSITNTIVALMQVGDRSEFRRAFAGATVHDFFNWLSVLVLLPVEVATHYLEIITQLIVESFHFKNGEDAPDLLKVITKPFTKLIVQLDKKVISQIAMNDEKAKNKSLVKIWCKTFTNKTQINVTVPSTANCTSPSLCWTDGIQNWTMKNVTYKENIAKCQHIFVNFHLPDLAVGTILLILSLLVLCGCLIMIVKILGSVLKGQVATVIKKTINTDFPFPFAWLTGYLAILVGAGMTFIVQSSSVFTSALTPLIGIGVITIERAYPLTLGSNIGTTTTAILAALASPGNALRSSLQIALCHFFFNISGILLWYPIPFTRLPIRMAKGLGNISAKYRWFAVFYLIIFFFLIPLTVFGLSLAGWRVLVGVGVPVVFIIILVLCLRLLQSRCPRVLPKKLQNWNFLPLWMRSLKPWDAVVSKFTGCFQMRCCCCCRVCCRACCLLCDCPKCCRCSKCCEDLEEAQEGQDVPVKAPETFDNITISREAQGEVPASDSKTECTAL

[2] = target: T1, human sodium-dependent phosphate …; assay: flow cytometry, IGROV-1 cells (endogenous NaPi2b); parameters: unit not given here
[3] = target: T2, KLH (Sigma-Aldrich, H8283); assay: non-specific ELISA, KLH coated, antibody 100 nM
T2 construct: Coating of the non-specific ELISA

[4] = target: T1, human sodium-dependent phosphate …; assay: KinExA, monovalent antibody, IGROV-1 cells (endogenous NaPi2b) as titrant, N-curve analysis
cynomolgus monkey NaPi2b [5] = target: T3, cynomolgus monkey NaPi2b (cynomolgus monkey, UniProt O95436 1-690 (human entry)); assay: flow cytometry on HEK293-6e cells transfected with cynomolgus NaPi2b, apparent Kd
T3 construct: Transfected into HEK293-6e cells (clone CL_#13433); also called Cy NaPi2b; Cyno NaPi2b
T3 chain: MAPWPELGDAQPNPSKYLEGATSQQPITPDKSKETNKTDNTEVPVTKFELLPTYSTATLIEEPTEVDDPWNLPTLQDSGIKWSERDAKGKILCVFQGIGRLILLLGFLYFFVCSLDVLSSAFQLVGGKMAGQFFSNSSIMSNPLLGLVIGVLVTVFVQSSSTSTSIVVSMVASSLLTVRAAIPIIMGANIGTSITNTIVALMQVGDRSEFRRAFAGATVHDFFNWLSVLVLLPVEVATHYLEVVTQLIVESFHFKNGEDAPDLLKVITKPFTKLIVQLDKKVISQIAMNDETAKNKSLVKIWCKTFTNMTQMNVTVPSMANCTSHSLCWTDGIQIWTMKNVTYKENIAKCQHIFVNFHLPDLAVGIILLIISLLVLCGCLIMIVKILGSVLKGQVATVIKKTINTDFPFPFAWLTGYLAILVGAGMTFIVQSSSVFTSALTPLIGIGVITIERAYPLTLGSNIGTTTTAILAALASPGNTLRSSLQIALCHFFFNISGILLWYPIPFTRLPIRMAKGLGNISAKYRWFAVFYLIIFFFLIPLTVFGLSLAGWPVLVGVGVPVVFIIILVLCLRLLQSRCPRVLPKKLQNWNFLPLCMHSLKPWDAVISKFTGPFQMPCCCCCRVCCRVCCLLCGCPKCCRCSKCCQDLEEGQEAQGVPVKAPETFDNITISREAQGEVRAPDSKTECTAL

[6] = target: T4, human sodium-dependent phosphate transporter 2B (NaPi2b) (human, UniProt O95436 1-690); assay: flow cytometry on HEK293-6e cells transfected with human NaPi2b
T4 construct: Endogenous on tumor cell lines (IGROV-1, OVCAR-3, HCC-78, TOV-21G, NCI-H441) or transfected into HEK293-6e cells with pTT5-huNaPi2b (CL_#13432); also called Hu NaPi2b; hNaPi2b
T4 sequence: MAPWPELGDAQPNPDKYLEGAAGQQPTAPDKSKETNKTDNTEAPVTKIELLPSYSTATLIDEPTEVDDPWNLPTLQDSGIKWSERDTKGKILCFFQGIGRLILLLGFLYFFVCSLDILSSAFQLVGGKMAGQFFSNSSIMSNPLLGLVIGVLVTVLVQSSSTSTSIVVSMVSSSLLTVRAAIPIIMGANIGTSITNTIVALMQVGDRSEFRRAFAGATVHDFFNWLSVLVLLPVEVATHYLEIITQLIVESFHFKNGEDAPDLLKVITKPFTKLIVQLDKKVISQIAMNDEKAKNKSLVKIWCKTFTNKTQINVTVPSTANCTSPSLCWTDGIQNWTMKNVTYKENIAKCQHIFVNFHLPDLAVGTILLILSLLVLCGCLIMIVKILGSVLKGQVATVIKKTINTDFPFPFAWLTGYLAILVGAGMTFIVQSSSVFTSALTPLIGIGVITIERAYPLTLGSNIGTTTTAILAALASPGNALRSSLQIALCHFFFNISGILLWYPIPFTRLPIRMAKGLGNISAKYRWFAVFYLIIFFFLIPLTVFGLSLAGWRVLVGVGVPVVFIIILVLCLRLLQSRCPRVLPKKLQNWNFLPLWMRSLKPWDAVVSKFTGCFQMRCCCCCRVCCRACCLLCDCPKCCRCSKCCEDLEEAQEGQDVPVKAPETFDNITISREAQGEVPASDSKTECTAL

[7] = target: T4, human sodium-dependent phosphate …; assay: flow cytometry on HEK293-6e cells transfected with human NaPi2b, apparent Kd
[8] = target: T4, human sodium-dependent phosphate …; assay: flow cytometry on HEK293-6e cells transfected with human NaPi2b; remark: listed apart in the source
mouse NaPi2b [9] = target: T5, mouse NaPi2b (mouse, UniProt Q9DBP0 1-697); assay: flow cytometry on HEK293-6e cells transfected with mouse NaPi2b, apparent Kd
T5 construct: Transfected into HEK293-6e cells (clone CL_#13476); also called Ms NaPi2b
T5 sequence: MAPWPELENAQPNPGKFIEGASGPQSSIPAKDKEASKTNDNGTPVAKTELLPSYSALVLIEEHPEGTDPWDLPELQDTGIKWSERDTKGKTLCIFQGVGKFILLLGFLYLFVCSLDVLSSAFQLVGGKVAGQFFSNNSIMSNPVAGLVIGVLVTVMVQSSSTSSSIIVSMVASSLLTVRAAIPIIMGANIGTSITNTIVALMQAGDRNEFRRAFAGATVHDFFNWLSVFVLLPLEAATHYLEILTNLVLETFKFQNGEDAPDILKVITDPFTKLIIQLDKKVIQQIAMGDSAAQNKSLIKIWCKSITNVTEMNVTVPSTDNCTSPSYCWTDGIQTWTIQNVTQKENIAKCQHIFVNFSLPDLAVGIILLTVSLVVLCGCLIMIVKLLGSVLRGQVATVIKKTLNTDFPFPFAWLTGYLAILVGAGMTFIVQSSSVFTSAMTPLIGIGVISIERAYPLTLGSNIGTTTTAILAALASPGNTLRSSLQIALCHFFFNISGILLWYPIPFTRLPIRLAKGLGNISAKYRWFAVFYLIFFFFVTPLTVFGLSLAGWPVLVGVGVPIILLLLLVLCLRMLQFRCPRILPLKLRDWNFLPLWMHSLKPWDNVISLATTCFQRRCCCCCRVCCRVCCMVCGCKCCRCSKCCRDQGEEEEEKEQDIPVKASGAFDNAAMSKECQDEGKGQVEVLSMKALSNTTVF

[10] = target: T4, human sodium-dependent phosphate …; assay: flow cytometry on OVCAR-3 cells, 24 h at 4 C, anti-human IgG Fc AF647
cynomolgus monkey NaPi2b [11] = target: T3, cynomolgus monkey NaPi2b; assay: flow cytometry on HEK293-6e cells transfected with cynomolgus NaPi2b
[12] = target: T4, human sodium-dependent phosphate …; assay: cell-based or functional assay
[13] = target: T4, human sodium-dependent phosphate …; assay: flow cytometry on HEK293-6e cells transfected with human NaPi2b, apparent Kd; remark: listed apart in the source
[14] = target: T4, human sodium-dependent phosphate …; assay: flow cytometry on IGROV-1 cells, 24 h at 4 C, anti-human IgG Fc AF647
mouse NaPi2b [15] = target: T5, mouse NaPi2b; assay: flow cytometry on HEK293-6e cells transfected with mouse NaPi2b
[16] = target: T1, human sodium-dependent phosphate …; assay: flow cytometry on IGROV-1 cells (endogenous NaPi2b), 24 h at 4 C, anti-human IgG Fc AF647

B1: v29452 (H1L3) (antibody, human IgG1, kappa, V domains shown)
VH: QVQLVQSGAEVKKPGASVKVSCKASGFTFTSYNVHWVRQAPGQGLEWMGAISPGNGDLSYAQKFQGRVTMTRDTSTSTVYMELSSLRSEDTAVYYCARGRTGMGAVDYWGQGTLVTVSS
VL: DVQMTQSPSSLSASVGDRVTITCRASQDVYSYLNWYQQKPGKAVKLLIYYTSRLQSGVPSRFSGSGSGTDYTLTISSLQPEDIATYYCQQYNIFPWTFGQGTKLEIKR
notes: Humanized IgG1/kappa
Kd [1]: 1.6 nM | Bmax [2]: 47800 | NS-ELISA binding score (signal over buffer well) [3]: 1.34

B2: v36124 (monovalent format of humanized antibody variant 29456) (antibody, V domains shown)
VH: QVQLVQSGAEVKKPGASVKVSCKASGFTFTSYNVHWVRQAPGQGLEWMGAISPGNGDLSYAQKFQGRVTMTRDTSTSTVYMELSSLRSEDTAVYYCARGRTGMGAVDYWGQGTLVTVSS
VL: DVQMTQSPSSLSASVGDRVTITCRASQDVYSYLNWYQQKPGKAVKLLIYYTSRLQSGVPSRFSGSGSGTDYTLTISSLQPEDFATYYCQQYNIFPWTFGQGTKLEIK
notes: Monovalent format; rest of the construct not described; also called VH1/VL2
Kd [4]: 0.283 nM

B3: v18992 (MX35) (antibody, human IgG1, kappa)
heavy 1: GQVQLVQSGAEVVKPGASVKMSCKASGYTFTGYNIHWVKQAPGQGLEWIGAIYPGNGDTSYKQKFRGRATLTADTSTSTVYMELSSLRSEDSAVYYCARGETARATFAYWGQGTLVTVSSASTKGPSVFPLAPSSKSTSGGTAALGCLVKDYFPEPVTVSWNSGALTSGVHTFPAVLQSSGLYSLSSVVTVPSSSLGTQTYICNVNHKPSNTKVDKKVEPKSCDKTHTCPPCPAPELLGGPSVFLFPPKPKDTLMISRTPEVTCVVVDVSHEDPEVKFNWYVDGVEVHNAKTKPREEQYNSTYRVVSVLTVLHQDWLNGKEYKCKVSNKALPAPIEKTISKAKGQPREPQVYVYPPSRDELTKNQVSLTCLVKGFYPSDIAVEWESNGQPENNYKTTPPVLDSDGSFALVSKLTVDKSRWQQGNVFSCSVMHEALHNHYTQKSLSLSPG
heavy 2: not shown
light: GDIQMTQSPSSLSASVGDRVTITCSASQDIGNFLNWYQQKPGKTVKVLIYYTSSLYSGVPSRFSGSGSGTDYTLTISSLQPEDFATYYCQQYSKLPLTFGQGTKLELKRTVAAPSVFIFPPSDEQLKSGTASVVCLLNNFYPREAKVQWKVDNALQSGNSQESVTEQDSKDSTYSLSSTLTLSKADYEKHKVYACEVTHQGLSSPVTKSFNRGEC
notes: Two different heavy chains (heterodimeric Fc)
Kd (cynomolgus monkey NaPi2b [5]): 0.67 nM | Bmax [6]: 548 | Kd [7]: 1.51 nM | Bmax [8]: 548 | Kd (mouse NaPi2b [9]): 0.35 nM | Bmax [10]: 14500 | Kd [10]: 3.03 nM | Bmax (cynomolgus monkey NaPi2b [11]): 378 | Internalized Fluorescence in OVCAR-3, 15 min, 100 nM [12]: 6650 | Internalized Fluorescence in OVCAR-3, 4 hr, 100 nM [12]: 16100 | Internalized Fluorescence in OVCAR-3, 16 hr, 100 nM [12]: 18600 | Internalized Fluorescence in OVCAR-3, 24 hr, 100 nM [12]: 28600 | Kd [13]: 1.51 nM | Bmax [14]: 21400 | Kd [14]: 1.49 nM | Bmax (mouse NaPi2b [15]): 379

B4: v18992 (MX35)-DL2 (antibody, human IgG1, kappa)
heavy 1: GQVQLVQSGAEVVKPGASVKMSCKASGYTFTGYNIHWVKQAPGQGLEWIGAIYPGNGDTSYKQKFRGRATLTADTSTSTVYMELSSLRSEDSAVYYCARGETARATFAYWGQGTLVTVSSASTKGPSVFPLAPSSKSTSGGTAALGCLVKDYFPEPVTVSWNSGALTSGVHTFPAVLQSSGLYSLSSVVTVPSSSLGTQTYICNVNHKPSNTKVDKKVEPKSCDKTHTCPPCPAPELLGGPSVFLFPPKPKDTLMISRTPEVTCVVVDVSHEDPEVKFNWYVDGVEVHNAKTKPREEQYNSTYRVVSVLTVLHQDWLNGKEYKCKVSNKALPAPIEKTISKAKGQPREPQVYVYPPSRDELTKNQVSLTCLVKGFYPSDIAVEWESNGQPENNYKTTPPVLDSDGSFALVSKLTVDKSRWQQGNVFSCSVMHEALHNHYTQKSLSLSPG
heavy 2: not shown
light: GDIQMTQSPSSLSASVGDRVTITCSASQDIGNFLNWYQQKPGKTVKVLIYYTSSLYSGVPSRFSGSGSGTDYTLTISSLQPEDFATYYCQQYSKLPLTFGQGTKLELKRTVAAPSVFIFPPSDEQLKSGTASVVCLLNNFYPREAKVQWKVDNALQSGNSQESVTEQDSKDSTYSLSSTLTLSKADYEKHKVYACEVTHQGLSSPVTKSFNRGEC
modifications: as above; maleimide functionalized auristatin drug linker (DL2); sites and DAR not stated
notes: also called MX35-DL2 ADC
Kd [1]: 1.22 nM | EC50 (read off the curve) [16]: 1 to 1.7 nM | Bmax [2]: 41200

B5: v29814 (monovalent format of parental chimeric variant 23855) (antibody, V domains shown)
VH: QAYLQQSGAELVRPGASVKMSCKASGFTFTSYNVHWVKQTPRQGLEWIAAISPGNGDLSYNQRFKDKATLTVDRSSSTAYMQLSGLTSEDSAVYFCARGRTGMGAVDYWGQGTSVTVSS
VL: DVQMTQTASSLSASLGDRVTISCRASQDVYSYLNWYQQKPHGTVKLLIYYTSRLQSGVPSRFTGSGSGTDYSLTISNLEPEDIATYYCQQYNIFPWTFGGGTKLEIK
notes: Monovalent format; VH and VL are those of v23855; also called parental chimeric monovalent antibody variant
Kd [4]: 0.15 nM
